The text below walks through data of the DeepSol protein solubility set.

This data set can be described thus: soluble on expression in E. coli; label from the status in PepcDB or PDB records.
For “MSIYLTAMKNYLEQQNSLNSSKPKALILVAGATGGAQEGFQALERLRESYEIIVVASQAALDLYGEENLKSLTGTAKIYQGKEFKIYDFLKVVTIVFLPVVSSNLVGKLAHGIYDEPLASLIFHAKLAGKPVIGVVDGALPDGDGFKSRGFTNPPPGLVKLINENIEKLRAQEIYLYKGKTILEKLSPYLGPQTAETSVVSSKTGVTLNKRVITREDLLELANQTITVSQKTIITDLAREYAVQNNIKINFAE”, the “soluble on expression in E. coli” value is recorded as “not soluble”. As for “MGHHHHHHSHMCNTPTYCDLGKAAKDVFNKGYGFGMVKIDLKTKSCSGVMEFSTSGHAYTDTGKASGNLETKYKVCNYGLTFTQKWNTDNTLGTEISWENKLAEGLKLTLDTIFVPNTGKKSGKLKASYKRDCFSVGSNVDIDFSGPTIYGWAVLAFEGWLAGYQMSFDTAKSKLSQNNFALGYKAADFQLHTHVNDGTEFGGSIYQKVNEKIETSINLAWTAGSNNTRFGIAAKYMLDCRTSLSAKVNNASLIGLGYTQTLRPGVKLTLSALIDGKNFSAGGHKVGLGFELEA”, the entry is “not soluble”; as for “MAEVTILGLGNLLWADEGFGVRAAEKLFEQYADNEKVDVVDGGTQGLALLPWLQQTEKLLIMDAIDFGMAPGSLAMFRDEQVPAYLTAKKLSLHQTSFSEVLALLQLTGGQLSEIVLIGVQPECLDDYGGSLTPQVKAQLMPAVYLAQEVLAQWGITASSAALPTERLNHYSLCMERYEDERPDAQSACRVGDIRVLQREKS”, “not soluble”; as for “MPFIAAMWHGQHIMISFMSRPQDRVATIISRSPDGNINTMALTRMGVRVMRASGARGRAVKDARAKGGAEGLRAMVKALKGGETVAFSADVPKVSRVCLEHHHHHH”, “not soluble”.

For “MIHEVAGDGTKRSFHEKKKMDESYQRNGRTNLEHVPRLKLGKLFIFISASTNKTCLQIDNEITNN”, the “soluble on expression in E. coli” value was “not soluble”.

For “MGSDKIHHHHHHMIEKTNPSHILLPEDSIKKYILPKYNLQDAEILQIKFKDTEKQRAVYKLTLGSKKYCLKKVYYDKGELLFVYSTTEWFFRHGINVTRILPTLDNSRFVIYSGMIFILMPWIDGLKCNYDKKEDLFKASKNLAHMHKCSQKFFSIQGSSIRYGFEHIYLSNKKHFEQILSFFNKAYEINDSFSKIALNNCDLCIKLSKIALNASSRIESRNFKKSLCHLDYVNKNIIFDKNNDIWVIDFDKCKFDYSVHDISYFMRRIMKRDNTRWNSELLINMLNVYEQINPLNLDEYLYILSYLVFPQKFWKICKDYYNNLSRCNKAAFINLIKSTTKYSELHLKFAYNFSNYIEGKFNVSLNL”, the “soluble on expression in E. coli” value was “not soluble”.

As for “MLIYHNCTTDRTMRKMRHEWGTFGIRIADAFSTMNIDVFDKGEKYNGNEKVELTTTVKNYKPKNNTRKWPAVEAKYLGVVYDNHNKLPKNCEGQKVEVQMMKIDKEQYGWVITDILNE”, the “soluble on expression in E. coli” value was “not soluble”.

With “ESTTVKMYEALPTGPGKEVGTVVISEAPGGLHFKVNMEKLTPGYHGFHVHENPSCAPGEKDGKIVPALAAGGHYDPGNTHHHLGPEGDGHMGDLPRLSANADGKVSETVVAPHLKKLAEIKQRSLMVHVGGDNYSDKPEPLGGGGARFACGVIE”, the “soluble on expression in E. coli” value is “soluble”.

For “MGSDKIHHHHHHMQIDQIETFLDLLETQSFNRTADRLDVTQSTVSGRVKALEKALGERLFERSRSGTQPTTAALRFETHARVLRRAWADGQADVKPFGTAVMLRIGIQHDLIDNHVADWLAALRQALPECGFYVDGDYSTQMCRDLETGALDLGVVFTPRPSPDLYFESMGEVTYQMVSTAQTSLPQIDPTNYILPNYAPAFAQTHAALLPGLSLGSVSSGQAAAVRGLLIALGGTTYLPTEMVSALITEGIAHHVPGAPDITQPVFVAMHLRNRHRAGYRRMANVLRDRVGT”, the “soluble on expression in E. coli” value was “not soluble”. For “MTGSCSDLLGFQYNNTVISSATLQETGTLTVANKPIGAHCLVKGYMDQHVSPVDGQTYQIGFEMRLPIDWNGRFLYQGNGGTDGNLVPATGQVGSGGPLTNALHDGFAIISSDAGHNASQNPMFGLDPQARINYGYGAITKLTPMAKNLIKAAYGKLPDRSYAGGTSNGGRHAMIAATRLGDQYDGILASTPGFHLPRAAAAQLYTAQQLRRVATDENDLSTALTLPERKVLAKAILDRCDALDGVTDGLVQDVEACRTAFDIHKHVTVCSSTRDGTCLSTEQIDVLANIYRGPVNSAGQALYATQPFDPGLVGSNWASWKFESSVGTARDPVAVGILFQVPPDPTVTQNSRQFALNFNFDTDYPKLSATNDVYTESSMSFMMPPDELNLDKLRNHGGKMIVVQGTADGVFSVDDTQNWYDQLLQHYKNDAKGTAPEFARFFRVPGMNHTRDGIATDQFDALTALVNWVEYGQAPDKIIATARGAGNPSGQVNTEIPQDWAPDRTRPLCPYPLIARYNGQGDLEHHHHHH” the value was “not soluble”.

In the case of “MAHHHHHHMTRVLVNREDCSVQVKGDLITFLYATVAKDPLVVASRNVTQLLRSRKDDTAAKLVADGESYVLKFESLRDREGFIESIVRAQEAEQALSNDEWVASTICHAAVDVGVLDQEELRAIMSAAGQRGVEQAFDALETLVDRETFQLLPITEQMENDVLRQTPVLAAIFQERVVDKETKKSFWEAVVRKYFCFSRTFLEEDIQRLEGARSVATAASPPLSGSAATSSLSVINASSMCALPKGAATAMLDTDINEEDLLHLDENVEPLQQSFHGLFAAHRHLPVGSASVLPVNGAALPFPQETAEPSPVYRPRFVGFRVLHQLPSETIEKAALETLRTFWRSSVKQRRSILAKYTRISKKGGGGFIQRMCLEQADRAVQNT”, the “soluble on expression in E. coli” value was “not soluble”. Consider “LALLYEVTCLNKPGLVDPVDAGAHQDMDVFTFLESSVVLTPYFETFVQAGTELRHLPIEATFRTIRQVGLEAERAMFEATEGINTHKGAIFSLGIFLAVCGRLMIWETPCTLQLFQQTLQTMTQDLLADFENLATNELEKLTWGERLFVQHGLTGIRGEAQQGYPAVFEQGVPYYQKHQGTQQQKLIDTLLYLSLYVEDTNLIKRSQNVQIFEVYQPLIQEYFALGGTQTLRGTLCLERLNHLFKEKNWSIGGSADALILVV”, for which the “soluble on expression in E. coli” value is recorded as “not soluble”. As for “MSDGSDDDTNNDGNYCKNVSYNFLIQRLAEVSNRKCLLLPKKKNRVDYISIMQTAEFYPELVNSSPPLEPGFTSCEVFVVDKKVDKDTLHLDNFSPYHIGATRRTLERQHSYFYRVNESGNFVPAIKTNGTHILRILVSILGSCPALNRKIYRMVKIESQNKNCLPSLIVYTFEPGHEIPKPNAPAILRRQTSDEIQKILNIPGTSFSQAHSEAVLNRFYDDLPIRDEASDQKRARYSIESTSSTNNQLNEINSFVVPKFEGRQESEQLFRDVKVEQFEESAEISINNRALSPHIQPSKTSVVNRPNQQNRKFQNYDMFSAGVISTATVPAPMFHPHITPIADLKDDDGYDPEELTQRNKLASLYRLVDLFRWSQGIYNHITVRVSTDPDEILINAFGQLYSEVSASSLIKVDLDGTVIDGGSTNFGVNQAGYVLHSAIHNGRPEVKCVVHLHHPSVVAVSAQKCGLLPISQESMIVGDVGYHEYRGILIDEAERALLVRDLGDRNVMILRNHGFVVCGESIEHALSLTYHLIIACETQIRTVPGGNTDNVHFPAQSAIKQVYKVASQGGGGVNRQNGHVNSMQWKKGELEWQAYMRQLDAQGYVTGNVPN”, the entry is “not soluble”. On to “MGSDKIHHHHHHMIVETMTMVEFEEGLKRTRTVFVPFGSVEEHGCHLPLSTDTIQAYEVGKKAALQISLFVAPPIHYGSCRSTSCHPGTISITTATLKCLMKDIVRSLYAQGMRNFIILTGHAGGSHRMALQDAGEELLPEIPDIRIAVVTEYELASREGKGIIETEGDAHAGEIETSRILHTHPHLVQGRGEREFPSFPTGILVRNKRKYWPNGVWGDPAKATAEKGKRLEELVVKKIVELAAALEQFQE”, for which the “soluble on expression in E. coli” value was “not soluble”.

“MKYILFATAGHVDHGKTTLIKTLTGIDTDRLPEEKKRGLSIDIGFAYIDFPDINTRLEIIDVPGHERFIKNAIAGICSASGLILVVDPNEGIMPQTIEHLRVAKSFGIKHGIAVLTKMDKVDEELAHIAEEELIAFLEKEEMNMEIVKVSAVTGQGIEDLKNSIKKLLESINNLNKHKPLRIFVDSAFVVKGYGTVLRGSCFEGEVKEGDKVVVEPIGVISRVRKMQNHGVFVKKAVAGERIALNLPEVDAKKVKRGFLILKPESYEKSNVLIVKTEIDLKPGKIYQVFFGMRETVGKISVIDKGIYLVRLKENAIVRRGDKLVVLDSSGNFLGGAEVLHPKVRVTKKAFIKKNIKDLLENFECYLLKERGPIGLKLEFFKRITGVSPKVANLKPESIEIRGVYYLKGFIENLKLKIKKFLDTELQNAFGVDKEKVKSMFSLNEELLKYILDELKTYKIVNELIIDERKSDLEKNEDFQKLMSILKGGIKEEREIILEGIPKEILTLSIKRKYAHRIGEYLIISDELLKKYINELKELGKTFNVQQAKNKLGLTRKYLIPLLEYLDYLGLTVREGNERRWKR”: the “soluble on expression in E. coli” value is on record as “soluble”. As for “MASQTNQTVVDTKKIETENPPKPQVPASSCRKRVKDDNATFFANLKDHMDEFIHASMDEHKTCFKNTMDKIFGSFSKAEAVAEKQIEAKEVVEIHSPLQTAVTK”, the “soluble on expression in E. coli” value is listed as “soluble”. As to “LENPLYYLHNFRQVLNWLQLRYADVLSADEQRFILDFAQLAEPSQALLVRMVMRKGRHFRLSKLSYPEIGDSAAALEPLLALGWVDEQAPLCLEELFGLLQKAEILQCFNGLAAKARKDQWLEELTQQGLAPQAFAQWCPALPDRLLSLTLMPLCDRLRLMFFGNLYQDWSEFVLADLGIYSYEKVEISADARGLRSREDVDGFLYLHECQEAFEAGAELPEVLAHIARFQTLNPWLEKRRAKLLFQLGQQCERLAQWALARQIYQECAYPGARSRLIRVLERSAQYQAALALAEQAAAAPESAAEAQHLLRIMPRLRRKLGGPPAPRAANREVQRLDLCLARDADGLAVELHVQAHLHQPQAPVHYVENSLINSLFGLLCWPAIFAPLPGAFFHPFQRGPVDLFSEDFHQRRSELFQACLAELDDGRYRQSIRQRFVAKWGLQSPFVFWGALSEELLDQALDCLPAEHLKHWFQRLLLDIKANRAGMPDLIQFWPEQKRYRMIEVKGPGDRLQDNQLRWLDFCQEHRMPVAVCYVQWQ”, the “soluble on expression in E. coli” value is reported as “not soluble”.

Consider “MRSAVSKVEESIEVAVPVSTAYNQWTQFEEFPQFMGGVERIEQQTATLTHWVTKVGGVTREFDAEIVEQIPDEQVSWTTVGGDVHQAGVVTFHRLDDRRTKVMLQMDHDSKGVVDAVGDKLGVVKHQVSEDLKRFKSFIENRGLEHHHHHH”, for which the “soluble on expression in E. coli” value is given as “not soluble”.

As for “GVDRDYLQSEYGVLKAGQCYKVVRSFRDYRNINYERGDVMRFLGSNFVPYESGLSLFFDKNGSERQIMLCVRPEFQMEIAHHLDSYFCKLDDN”, the “soluble on expression in E. coli” value is on record as “soluble”.

Take “MSLTPDLLNFKKGWMSILDEPGEPPSPSLTTTSTSQWKKHWFVLTDSSLKYYRDSTAEEADELDGEIDLRSCTDVTEYAVQRNYGFQIHTKDAVYTLSAMTSGIRRNWIEALRKTVRPTSAPDVTEGHHHHHH”: the “soluble on expression in E. coli” value is “soluble”. For “MFALPQAGDRRGEIIKVLLSNGWDYMNGLLTLGKVGEPQIPTPEVLTKILVELGPFYIKLGQLLSTRPDLLPPRYINALTALQSNVPPLPWSAIEDLLQREFPQPLGETFQEIESEPIAALEHHHHHH” the value was “not soluble”; for “MAGRLREMRCELSFLKNADGSACFSQGATCIWASCSGPGDVHASKASDEAMTLDISYRANCGDNKFNVLNNIIHSTLSNAINLELFPHTTISVTVHGIQDDGSMGAVAINGACFALLDNGMPFETVFCGVLIVRVKDELIIDPTAKQEAASTGRVLFSVCKGSDGHPEVCAMDAIGHWDFIQLEAAWSLAQPSASAIFDFYKTVMKRKLSVDEQ”, “not soluble”.
